Our source for the Kd values is PMC10697951 (2023).

The assay concerns the target H2A.Z(D97N/S98K)-containing nucleosome core particle with wild-type H4 (H4K20) (UniProt P06899 1-126; P68431 1-136; P62805 1-103). In words: MST.

In general, Kd refers to the free concentration of one partner at which half of the binding sites on the other are occupied at equilibrium, for simple one-to-one binding. A high value points to lower affinity.

B1: SUV420H1(1–390), wild type, with N-terminal 6× His-TEV tag (domain or fragment)
chain: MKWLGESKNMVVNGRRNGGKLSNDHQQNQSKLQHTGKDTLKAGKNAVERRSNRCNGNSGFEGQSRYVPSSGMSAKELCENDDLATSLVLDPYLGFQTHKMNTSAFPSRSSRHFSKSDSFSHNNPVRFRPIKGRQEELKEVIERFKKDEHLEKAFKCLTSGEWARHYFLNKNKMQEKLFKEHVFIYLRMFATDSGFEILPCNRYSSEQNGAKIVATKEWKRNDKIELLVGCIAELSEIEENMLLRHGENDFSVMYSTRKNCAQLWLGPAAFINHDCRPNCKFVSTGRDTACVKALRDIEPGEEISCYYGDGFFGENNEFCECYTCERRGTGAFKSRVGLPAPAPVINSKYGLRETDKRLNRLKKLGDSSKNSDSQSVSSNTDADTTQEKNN
modifications: RED-tris-NTA dye on the His tag
B1 gave a Kd of 219 nM.
